# Reference: PMC4786922, “Protein Delivery of an Artificial Transcription Factor Restores Widespread Ube3a Expression in an Angelman Syndrome Mouse Brain”
# Biological target: TAT-S1 (MBP-TAT-mCherry-HA-NLS-S1-KRAB) (artificial (designed))
# Assay: EMSA; EMSA: ZBA buffer (composition not given), 0.05% NP-40, 0.1 mg/ml BSA, 10% glycerol, 35-75 pM target, 1.5 h at room temperature; pH not given
# Settings: protein: recombinant, tags: N-terminal MBP, TAT(48-57), SV40 NLS, C-terminal KRAB, label: 5'-biotin on strand 1, blunt
binder,measurement,value
S1 target site EMSA probe (dsDNA) DNA 1: CCTCTTCGCTATTACGCCAGCCATGCGTAGGGAGCCGCGGAACGTTCGATCGTACTCGAGTCAGGGTG DNA 2: CACCCTGACTCGAGTACGATCGAACGTTCCGCGGCTCCCTACGCATGGCTGGCGTAATAGCGAAGAGG,Kd,8 ± 1.5 nM
